Here are results for five molecules from US20250042994A1 (HAINAN SIMCERE ZAIMING PHARMACEUTICAL, published 2025).

In experiment [1] the target is T1, Human CD19-his protein (human, UniProt P15391 20-291).
T1 construct: bought protein; also called human CD19 protein; recombinant human CD19-His; not shown: His tag
T1 sequence (looked up): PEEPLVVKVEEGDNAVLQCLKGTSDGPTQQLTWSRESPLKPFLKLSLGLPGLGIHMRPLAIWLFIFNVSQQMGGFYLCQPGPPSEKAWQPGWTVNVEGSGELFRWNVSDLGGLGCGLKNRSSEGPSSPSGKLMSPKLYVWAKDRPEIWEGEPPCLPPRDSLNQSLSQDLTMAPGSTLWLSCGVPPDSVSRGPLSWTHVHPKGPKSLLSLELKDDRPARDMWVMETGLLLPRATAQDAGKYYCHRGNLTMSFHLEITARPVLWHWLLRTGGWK
In words: ELISA, antibody at 10 nM. As to the method:
(§1) Human CD19-his protein (purchased from ACROBiosystems, catalog number: CD9-H52H2) was diluted with PBS to a final concentration of 4 μg/mL, and then added to a 96-well ELISA plate at 100 μl/well. The plate was sealed with a plastic film and incubated overnight at 4° C., the plate was washed 2 times with PBS the next day, and then a blocking solution [PBS+2% (w/w) BSA] was added for blocking at room temperature for 2 h. The blocking solution was poured off, and 100 nM gradiently diluted CD19 chimeric antibody or control antibody was added at 50 μl/well. After incubation at 37° C. for 2 h, the plate was washed 3 times with PBS. […] TMB substrate was added at 50 μl/well, and incubated at room temperature for 10 min, and then a stop solution (1.0 N HCl) was added at 50 μl/well. The OD450 nm values were read by an ELISA microplate reader (Multimode Plate Reader, EnSight, purchased from Perkin Elmer).
In general terms: An ELISA detects its analyte on a solid surface through an enzyme-linked reagent.

The target of experiment [2] is T1, Human CD19-his protein. The experiment in a line: ELISA, antibody at 0.0001 nM. As to the method: as §1
In experiment [3] the target is T1, Human CD19-his protein. The experiment in a line: ELISA, antibody at 0.01 nM. As to the method:
as §1

Experiment [4] addresses T1, Human CD19-his protein. The experiment in a line: ELISA, antibody at 0.001 nM. As to the method: as §1
Experiment [5] concerns the target T2, human CD19 exon1-3-his protein (human, UniProt P15391 20-186, limits assumed).
T2 construct: made in HEK293E cells; also called membrane-distal end; not shown: His tag
T2 sequence (looked up): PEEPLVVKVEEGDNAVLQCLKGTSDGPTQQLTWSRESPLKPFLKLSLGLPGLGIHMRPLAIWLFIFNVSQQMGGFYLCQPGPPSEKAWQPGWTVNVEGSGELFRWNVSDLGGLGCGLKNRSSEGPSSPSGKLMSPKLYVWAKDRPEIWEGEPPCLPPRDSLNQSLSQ
The experiment in a line: ELISA, coated at 2 ug/mL. How it is done:
as §1
CD19 protein contains 4 exons in the extracellular region, in which exons 1-3 are located at the membrane-distal end and exon 4 is located at the membrane-proximal end. […] To identify the distribution of antigen binding epitopes of the chimeric antibodies, human CD19 exon 1-3-His (membrane-distal end) was used to coat at 2 μg/mL according to the ELISA method in example 5.1.

A further experiment addresses T3, murine CD19 protein (murine, UniProt P25918 17-287, limits assumed).
T3 construct: bought protein; also called commercial murine CD19
T3 sequence (looked up): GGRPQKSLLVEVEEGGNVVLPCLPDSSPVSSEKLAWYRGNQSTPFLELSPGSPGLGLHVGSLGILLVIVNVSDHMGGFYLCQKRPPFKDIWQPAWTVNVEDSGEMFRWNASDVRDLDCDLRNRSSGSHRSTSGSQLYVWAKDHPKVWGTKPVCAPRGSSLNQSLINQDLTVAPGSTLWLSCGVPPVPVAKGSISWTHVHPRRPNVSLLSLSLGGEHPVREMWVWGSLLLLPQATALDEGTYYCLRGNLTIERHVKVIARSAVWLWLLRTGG
The experiment in a line: ELISA, coated murine CD19. As to the method:
as §1
In order to detect the species cross-binding activity of the chimeric antibodies, an ELISA plate was coated with commercial murine CD19 (ACROBiosystems, catalog number: 50510-M08H) and monkey CD19 (ACROBiosystems, catalog number: 90051-C08H), respectively, and the ELISA detection was performed according to the method in example 5.1.

Experiment [6] has as its target T1, Human CD19-his protein. In words: ELISA, antibody at 100 nM. As to the method: as §1
Experiment [7] deals with T1, Human CD19-his protein. In words: ELISA, antibody at 0.10 nM. How it is done: as §1
The target in experiment [8] is T1, Human CD19-his protein. In words: ELISA, antibody at 1.00 nM. As to the method:
as §1

B1: F3.81.2 (antibody, human IgG1, V domains shown)
VH: QVQLQQPGAELVMPGASVKLSCKASAYTFTNYWMHWVKQRPGHGLEWIGEIDPSDSYTDYNQNFKAKATLTVDKSSSTAYMQLSSLTSEDSAVYYCARLMGRYFDVWGTGTTVTVSS
VL: DIVMTQSHKFMSTSVGDRVSITCKASQDVSAAVAWYQQKPGQSPKLLINSASYRYTGVPDRFTGSGSGTDFTFTISSVQAEDLAVYYCQQHYSTPLTFGAGTKLELR
notes: human-murine chimeric antibody, human IgG1
As for B1, the OD450 was 1.05 with Human CD19-his protein [1]; 0.05 with Human CD19-his protein [2]; 0.07 in the experiment with Human CD19-his protein [3]; 0.05 with Human CD19-his protein [4]; 1.4 with Human CD19-his protein [6]; 0.24 in the experiment with Human CD19-his protein [7]. Also, the OD450 in the experiment with Human CD19-his protein [8] turned out to be 0.74. Further, the binding result (in experiment [5]; with murine CD19 protein) was “no binding” each time.

B2: F3.5.1 (antibody, human IgG1, V domains shown)
VH: QAQLQQSGPELVKPGASVKISCKASGYAFSGSWMNWVQQRPGKGLEWIGRIYPGDGDTYYNGKFKDKAILTADKSSSTAYMQLSSLTSEDSAVYFCAQLRYRYVMDYWGQGTSVTVSS
VL: DIVLTQSPASLAVSLGQRATISCRASESVSIHGSHLMHWYQQKPGQPPRLLIYAASNLESGVPARFSGSGSETDFTLNIHPVEEEDAATYFCQQGIKDPYTFGGGTKLEIK
notes: as for B1
As to B2, the OD450 in the experiment with Human CD19-his protein [1] worked out at 1.75; with Human CD19-his protein [2] it was 0.05; in the experiment with Human CD19-his protein [3] it was 0.11; with Human CD19-his protein [4], 0.06; with Human CD19-his protein [6] it was 2.01; with Human CD19-his protein [7], 0.5. The OD450 in the experiment with Human CD19-his protein [8] came to 1.38. Also, the binding result (in experiment [5]; with murine CD19 protein) was “no binding” in each case.

B3: F3.40.14 (antibody, human IgG1, V domains shown)
VH: QAQLQQSGPELVKPGASVKISCKASGYAFSGSWMNWVQQRPGKGLEWIGRIYPGDGDTYYSGKFKDKAILTADTSSSTAYMQLSSLTSEDSAVYFCAQLRSRYVMDYWGQGASVTVSS
VL: DIVLTQSPASLAVSLGQRATISCRASESVSIHGTHLMHWYQQKPGQPPRLLIYAASNLESGVPARFSGSGSETDFTLNIHPVEEEDAATYFCQQGIDDPYTFGGGTKLEIK
notes: as for B1
Consider B3, for which the OD450 in the experiment with Human CD19-his protein [1] came out at 1.01; with Human CD19-his protein [2], 0.05; in the experiment with Human CD19-his protein [3] it was 0.06; with Human CD19-his protein [4], 0.05; with Human CD19-his protein [6] it was 1.19; with Human CD19-his protein [7], 0.11. The molecule also gave an OD450 in the experiment with Human CD19-his protein [8] of 0.42. For the same molecule, the binding result (in experiment [5]; with murine CD19 protein) was “no binding” throughout.

B4: F3.13.2 (antibody, human IgG1, V domains shown)
VH: DVQLQESGPGLMKPSQSLSLTCSVTGYSITSGYYWNWIRQFPGNKLEWMGYISYDGSNNYNPSLKNRFSITRDTSKNQFFLKLNSVTTEDTATYYCARRKLTGGPYFDYWGQGTTLTVSS
VL: DIVLTQSPASLAVTLGQRATISCRASESVSFHGFHIMHWYQQKPGQPPKLLIYAASHLVSGVPDRFSGSGSETDFTLNIHPVEEEDAAAYFCQQSVEDPWTFGGGTKLEIK
notes: as for B1
In the case of B4, the OD450 turned out to be 0.29 in the experiment with Human CD19-his protein [1]; 0.05 with Human CD19-his protein [2]; 0.05 with Human CD19-his protein [3]; 0.05 with Human CD19-his protein [4]; 0.45 with Human CD19-his protein [6]; 0.06 with Human CD19-his protein [7]. This molecule registered an OD450 in the experiment with Human CD19-his protein [8] of 0.18. Also, the binding result (in experiment [5]; with murine CD19 protein) was “no binding” each time.

B5: F3.3.10 (antibody, human IgG1, V domains shown)
VH: DVQLQESGPGLAKLSQSLSLTCSVTGYSITSGYYWNWIRQFPGNKLEWMGHISYDGNNNYNPSLKNRISITRDTSKNQFFLKLNSVTTEDTATYYCARENYSNYYFDYWGQGTTLTVSS
VL: DIVLTQSPASLAVSLGQRATISCRASQSVSKSSYTYIHWYQQKPGQPPKLLIKYASILQSGVPARFSGSGSGTDFTLNFHPVEEEDTATYYCQHSWEIPYTFGGGTKLEIK
notes: as for B1
With B5, the OD450 in the experiment with Human CD19-his protein [1] came out at 0.42; with Human CD19-his protein [2] it was 0.05; in the experiment with Human CD19-his protein [3], 0.05; with Human CD19-his protein [4] it was 0.05; in the experiment with Human CD19-his protein [6], 0.59; with Human CD19-his protein [7], 0.08. The molecule also had an OD450 with Human CD19-his protein [8] of 0.21. Further, the binding result (in [5]; with murine CD19 protein) was “no binding” in each case.
